Measurements as given in patent US20070269427A1 (GlaxoSmithKline, published 2007).

T1: rat MAG-Fc fusion protein (R&D systems; 538-MG) (rat; human, UniProt P07722 20-516)
T1 construct: Bought reagent; not shown: human Fc
T1 sequence (looked up): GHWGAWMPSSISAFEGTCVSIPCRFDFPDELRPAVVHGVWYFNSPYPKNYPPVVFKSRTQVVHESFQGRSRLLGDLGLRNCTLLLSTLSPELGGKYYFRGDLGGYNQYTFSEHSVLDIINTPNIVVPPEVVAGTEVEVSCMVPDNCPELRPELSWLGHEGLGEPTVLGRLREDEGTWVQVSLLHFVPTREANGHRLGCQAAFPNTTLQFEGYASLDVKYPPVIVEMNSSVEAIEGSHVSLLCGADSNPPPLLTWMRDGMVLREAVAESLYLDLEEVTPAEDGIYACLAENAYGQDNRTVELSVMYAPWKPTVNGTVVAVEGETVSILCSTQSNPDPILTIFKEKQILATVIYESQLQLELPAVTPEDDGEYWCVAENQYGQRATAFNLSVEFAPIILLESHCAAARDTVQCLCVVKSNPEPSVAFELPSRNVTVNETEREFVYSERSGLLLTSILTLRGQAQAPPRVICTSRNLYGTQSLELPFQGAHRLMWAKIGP


Experiments:
[1] = biological target: T1, rat MAG-Fc fusion protein (R&D systems; …); experiment: direct binding ELISA on coated rat MAG-Fc (FIG. 6)
Description: (§1) 96-well Nunc Maxisorp plates were coated overnight at 4° C. with rat MAG-Fc fusion protein (2.5 μg/ml; R&D Systems; Cat.No. 538-MG) in PBS. Plates were washed twice with PBS containing Tween20 (0.1% v/v; PBST) and blocked with PBS containing BSA (1% w/v) for 1 h at room temperature (RT). Purified humanised antibody was adjusted to a starting concentration of 5 μg/ml in blocking buffer and then serial diluted. Antibody samples were incubated 1 h at RT and plates then washed 3× with PBST. Secondary antibody (Goat anti-human light chain specific-peroxidase conjugate; Sigma A-7164) was added diluted 1/5000 in blocking buffer and incubated for 1 h at RT. Wells were washed three times as above and binding detected by adding substrate (OPD tablets dissolved according to instructions; Sigma P-9187). Colour development was monitored and the reaction stopped using 3M H₂SO₄. Colour development was read at 490 nm.

[2] = biological target: T1, rat MAG-Fc fusion protein (R&D systems; …); experiment: direct binding ELISA on coated rat MAG-Fc, purified antibody
Description: as §1

binding result [1]	binding result [2]	Binder
binds		Humanised anti-MAG antibody BVh1/CVl1 (antibody, V domains shown, also called BVh1/CVI1) VH: QVQLVQSGSELKKPGASVKVSCKASGYTFTNYGMNWVRQAPGQGLEWMGWINTYTGEPTYADDFTGRFVFSLDTSVSTAYLQISSLKAEDTAVYYCARNPINYYGINYEGYVMDYWGQGTLVTVSS VL: not shown
	binds	Humanised anti-MAG antibody BVh3/CVl3 (antibody, IgG1, V domains shown, also called BVh3/CVI3) VH: QVQLVQSGSELKKPGASVKVSCKASGYTFTNYGMNWVRQAPGQGLEWMGWINTYTGEPTYADDFTGRFVFSLDTSVSTAYLQISSLKAEDTATYFCARNPINYYGINYEGYVMDYWGQGTLVTVSS VL: DIVMTQSPDSLAVSLGERATINCKSSHSVLYSSNQKNYLAWYQQKPGQPPKLLIYWASTRESGVPDRFSGSGSGTDFTLTISSLHTEDVAVYYCHQYLSSLTFGQGTKLEIKR
